The supplement of paper PMC9112550, “Optimization of the antimicrobial peptide Bac7 by deep mutational scanning” (BMC Biology, 2022)

Tested on: Escherichia coli TOP10
Assay: shrunken log2 fold change of peptide-encoding DNA abundance (4.5 h post-induction vs induction); higher = less antimicrobial activity (less host growth inhibition)
Conditions: time post-induction: 4.5 h; library: site-saturation at positions 5, 18, 19, 20
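Also: peptides expressed intracellularly from a pBAD plasmid library in pooled LB shake-flask culture, induced with 0.3% L-arabinose, DNA abundance read by NGS, three biological replicates, DESeq2 with apeglm shrinkage.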

Sequence | shrunken log2 fold change
RRIRMRPPRLPRPRPRPMWVPRP | 0.0332
RRIRTRPPRLPRPRPRPLYAPRP | -0.274
RRIRGRPPRLPRPRPRPHIVPRP | 0.106
RRIRLRPPRLPRPRPRPHKYPRP | -0.559
RRIRYRPPRLPRPRPRPWSRPRP | -0.205
RRIRARPPRLPRPRPRPFLCPRP | 0.0599
RRIRRRPPRLPRPRPRPKCDPRP | 0.0319
RRIRGRPPRLPRPRPRPRDIPRP | 0.373
RRIRSRPPRLPRPRPRPIVAPRP | 0.0103
RRIRKRPPRLPRPRPRPDVGPRP | 0.0262
RRIRPRPPRLPRPRPRPWNVPRP | -0.052
RRIRRRPPRLPRPRPRPTHSPRP | 0.775
RRIRDRPPRLPRPRPRPTKTPRP | -0.014
RRIRKRPPRLPRPRPRPCFWPRP | 0.42
RRIRYRPPRLPRPRPRPFTEPRP | -0.955
RRIRRRPPRLPRPRPRPPQPPRP | 1.26
RRIRNRPPRLPRPRPRPICAPRP | 0.0914
RRIRHRPPRLPRPRPRPQNIPRP | -0.269
RRIRGRPPRLPRPRPRPGELPRP | 0.61
RRIRIRPPRLPRPRPRPGISPRP | -0.27
RRIRYRPPRLPRPRPRPMAYPRP | -0.0189

Sequence | shrunken log2 fold change
RRIRWRPPRLPRPRPRPFQVPRP | -0.19
RRIRMRPPRLPRPRPRPDQCPRP | 0.0192
RRIRLRPPRLPRPRPRPPVNPRP | 0.168
RRIRYRPPRLPRPRPRPMPIPRP | -0.16
RRIRTRPPRLPRPRPRPSRYPRP | -0.23
RRIRPRPPRLPRPRPRPDVFPRP | -0.203
RRIRCRPPRLPRPRPRPTRAPRP | 0.632
RRIRVRPPRLPRPRPRPQMQPRP | -0.325
RRIRSRPPRLPRPRPRPCVNPRP | -0.0338
RRIRWRPPRLPRPRPRPVFTPRP | 0.0746
RRIRMRPPRLPRPRPRPYWSPRP | -0.186
RRIRGRPPRLPRPRPRPVLIPRP | 0.223
RRIRKRPPRLPRPRPRPHHHPRP | -0.208
RRIRNRPPRLPRPRPRPHRSPRP | 0.283
RRIRPRPPRLPRPRPRPEAEPRP | 0.979
RRIRRRPPRLPRPRPRPRVCPRP | 0.89
RRIRGRPPRLPRPRPRPPMGPRP | 0.59
RRIRGRPPRLPRPRPRPANVPRP | -0.126
RRIRARPPRLPRPRPRPPDHPRP | 0.683
RRIRYRPPRLPRPRPRPEYLPRP | -0.139
RRIRRRPPRLPRPRPRPGKPPRP | 0.293

Sequence | shrunken log2 fold change
RRIRARPPRLPRPRPRPYTGPRP | -0.645
RRIRVRPPRLPRPRPRPYAQPRP | 0.0393
RRIRYRPPRLPRPRPRPLWLPRP | 0.0113
RRIRRRPPRLPRPRPRPKAMPRP | 0.431
RRIRLRPPRLPRPRPRPPSRPRP | 0.175
RRIRCRPPRLPRPRPRPWKVPRP | 0.101
RRIRYRPPRLPRPRPRPSHQPRP | -0.594
RRIRQRPPRLPRPRPRPMTTPRP | 3.23
RRIRYRPPRLPRPRPRPYANPRP | -0.474
RRIRSRPPRLPRPRPRPEPTPRP | 0.467
RRIRRRPPRLPRPRPRPDQLPRP | -0.0202
RRIRGRPPRLPRPRPRPNEVPRP | 0.0747
RRIRARPPRLPRPRPRPHYFPRP | 0.0061
RRIRCRPPRLPRPRPRPVCNPRP | 0.0532
RRIRCRPPRLPRPRPRPFWDPRP | 0.00555
RRIRCRPPRLPRPRPRPEWWPRP | -0.00726
RRIRIRPPRLPRPRPRPLYAPRP | -0.651
RRIRRRPPRLPRPRPRPVWMPRP | 0.561
RRIRHRPPRLPRPRPRPGFSPRP | -0.236
RRIRDRPPRLPRPRPRPSCLPRP | -0.0009
